Changes are numbered by the printed parent chain. Names and notes keep the numbering of the source.

Experiment [1] concerns the target T1, human leucine rich repeat containing 4C (LRRC4C) (human, UniProt Q9HCJ2 45-640).
T1 construct: also called human LRRC4; NGL1
T1 sequence: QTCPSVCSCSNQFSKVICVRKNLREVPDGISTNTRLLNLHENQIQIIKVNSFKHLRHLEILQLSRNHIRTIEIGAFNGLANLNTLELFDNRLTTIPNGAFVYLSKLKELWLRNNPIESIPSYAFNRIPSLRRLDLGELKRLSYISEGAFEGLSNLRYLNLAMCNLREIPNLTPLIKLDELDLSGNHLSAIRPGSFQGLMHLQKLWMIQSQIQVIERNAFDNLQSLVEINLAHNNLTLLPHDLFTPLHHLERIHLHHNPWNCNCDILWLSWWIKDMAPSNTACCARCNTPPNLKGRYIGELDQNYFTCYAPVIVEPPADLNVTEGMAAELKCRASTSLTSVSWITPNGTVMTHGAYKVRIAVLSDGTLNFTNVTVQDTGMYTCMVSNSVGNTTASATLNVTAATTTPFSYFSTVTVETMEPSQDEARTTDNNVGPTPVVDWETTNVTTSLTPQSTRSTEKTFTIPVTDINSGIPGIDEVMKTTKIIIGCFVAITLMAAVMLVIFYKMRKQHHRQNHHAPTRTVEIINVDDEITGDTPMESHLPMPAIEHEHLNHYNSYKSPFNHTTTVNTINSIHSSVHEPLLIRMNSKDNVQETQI
Kind of experiment: genome-scale human receptor array; transfected HEK293T cells, anti-Fc FMAT blue secondary antibody. The text has this:
(§1) To identify the ligand for Siglec 15, a Siglec 15-Fc fusion protein was generated by fusing the extracellular domain of each molecule with a mouse or human Fc tag (Dong H, et al., Nat Med. 1999; 5(12): 1365-9) and screened in the newly established genome scale human receptor array (Yao, S et al., Immunity 2011, 34(5):729-40). Briefly, the complete human membrane gene library containing over 6,200 genes was collected, maintained, and diluted by OPTI-MEM media and placed individually into four 1,536-well plates at 40 ng/well, through a robotic system. Lipofectamine 2000 was added to each well and mixed with plasmids for 30 minutes. Two thousand HEK293T cells were added subsequently to each well to perform transient transfection. Eight hours after transfection, 10 ng of human Siglec 15-Fc and anti-Fc FMAT blue secondary antibody were added to each well. The plates were read 24 hours after transfection using the Applied Biosystems 8200 cellular detection system and analyzed using the CDS 8200 software. Human Fc Receptor genes served as internal positive controls for the assay.

For experiment [2], the target named is T2, human myelin-associated glycoprotein (MAG) (human, UniProt P20916 20-626).
T2 construct: Expressed on transfected HEK293T cells from the human membrane gene library; also called Siglec 4; human MAG
T2 sequence: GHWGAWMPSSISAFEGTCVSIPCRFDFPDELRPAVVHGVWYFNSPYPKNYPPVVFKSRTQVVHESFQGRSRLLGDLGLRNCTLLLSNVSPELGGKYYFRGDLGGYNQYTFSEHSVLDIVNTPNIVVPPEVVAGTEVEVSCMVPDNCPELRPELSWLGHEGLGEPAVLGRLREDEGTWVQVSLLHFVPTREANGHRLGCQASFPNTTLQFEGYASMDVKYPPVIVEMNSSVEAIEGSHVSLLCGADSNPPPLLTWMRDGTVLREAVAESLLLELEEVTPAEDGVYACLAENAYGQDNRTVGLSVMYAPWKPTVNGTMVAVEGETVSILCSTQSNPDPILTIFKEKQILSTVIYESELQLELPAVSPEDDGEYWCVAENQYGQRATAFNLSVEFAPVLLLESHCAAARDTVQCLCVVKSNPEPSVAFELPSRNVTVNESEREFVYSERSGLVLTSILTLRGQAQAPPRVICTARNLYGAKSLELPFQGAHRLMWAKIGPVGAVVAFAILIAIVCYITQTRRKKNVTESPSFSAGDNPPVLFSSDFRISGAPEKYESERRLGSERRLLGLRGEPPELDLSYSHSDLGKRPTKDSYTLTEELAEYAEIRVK
The description is as above.
From the text: as §1

Experiment [3] deals with T3, LRRC4C (species not stated) (Homo sapiens (Human), UniProt Q9HCJ2 45-640, limits assumed).
T3 construct: also called leucine rich repeat containing 4C
T3 sequence: T1 sequence
The experiment in a line: binding of Siglec 15 point mutant, FIG. 7.

The next experiment addresses T4, MAG (species not stated) (Homo sapiens (Human), UniProt P20916 20-626, limits assumed).
T4 construct: also called myelin-associated glycoprotein
T4 sequence: T2 sequence
The experiment in a line: binding of Siglec 15 point mutant, FIG. 7.

B1: human Siglec 15-Fc fusion protein (Fc fusion)
chain: FVRTKIDTTENLLNTEVHSSPAQRWSMQVPPEVSAEAGDAAVLPCTFTHPHRHYDGPLTAIWRAGEPYAGPQVFRCAAARGSELCQTALSLHGRFRLLGNPRRNDLSLRVERLALADDRRYFCRVEFAGDVHDRYESRHGVRLHVTAAPRIVNISVLPSPAHAFRALCTAEGEPPPALAWSGPALGNSLAAVRSPREGHGHLVTAELPALTHDGRYTCTAANSLGRSEASVYLFRFHGASGAST
notes: not shown: mouse or human Fc tag
For the molecule B1, the binding result in experiment [1] and in experiment [2] was “binds” each time.

B2: Siglec 15 R143A mutant (other)
chain: B1 chain with R124A
notes: also called R143A mutation
Turning to B2, the binding result (in experiment [3]; with MAG (species not stated)) was “no binding” throughout.

The values are drawn from patent US20180318419A1 (YALE UNIVERSITY, published 2018).
